In US11912794B2, “Modulation of structured polypeptide specificity” (BicycleRD Limited, priority 2011, dated 2024):
Ends that are not written are not given here.

Target: T1, Biotinylated hPK (Homo sapiens, UniProt P03952)
T1 construct: IHPKA, from human plasma; purchased Innovative Research, Novi, MI, USA IHPKA; host or cells: human plasma
Experiment: Phage selections, abundance of sequences in selection outputs
Type: binding
Details: for Frequency (relative abundance in the total selection outputs): randomised WPAR motif at positions 2, 3, 4 & 5 within the 06-34-03 sequence
Description: Glycerol stocks of phage libraries were diluted to OD600=0.1 in 500 ml 2YT/chloramphenicol (30 μg/ml) cultures and phage were produced at 30° C. over night (15-16 hrs). Phage were purified and chemically modified as described in Heinis, et al., Nat Chem Biol 2009, 5 (7), 502-7 Biotinylated hPK (3 μg) (IHPKA, from human plasma, Innovative Research, Novi, MI, USA) was incubated with 50 μl pre-washed magnetic streptavidin beads (Dynal, M-280 from Invitrogen, Paisley, UK) for 10 minutes at RT. […] Blocked beads were then mixed with the blocked chemically modified phage and incubated for 30 minutes on a rotating wheel at RT. Beads were washed 8 times with washing buffer containing 0.1% Tween 20 and twice with washing buffer before incubation with 100 μl of 50 mM glycine, pH 2.2 for 5 minutes. Eluted phage were transferred to 50 μl of 1 M Tris-Cl, pH 8 for neutralization, incubated with 30 ml TG1 cells at OD600=0.4 for 90 minutes at 37° C. and the cells were plated on large 2YT/chloramphenicol plates. One or two additional rounds of panning were performed using the same procedures. In the second round of selection, neutravidin-coated magnetic beads were used to prevent the enrichment of streptavidin-specific peptides. The neutravidin beads were prepared by reacting 0.8 mg neutravidin (Pierce, Rockford, IL, USA) with 0.5 ml tosyl-activated magnetic beads (Dynal, M-280 from Invitrogen, Paisley, UK) according to the supplier's instructions.
The WPAR (SEQ ID NO: 18) motif identified from Example 1 was analysed in the context of the 06-34-03 peptide, in order to identify alternatives or improvements to the WPAR (SEQ ID NO: 18) motif. A library was constructed where positions 1, 6, 7, 8, 9 &10 of 06-34-03 were fixed and positions 2, 3, 4 & 5 were randomised (see ‘Randomisation of peptide domains—Library construction’ in Methods above). Selections against human plasma Kallikrein were performed at a variety of stringencies (see Phage selections' in Methods above). All output sequences were identified and analysed for target binding (see ‘Randomisation of peptide domains—Assay of binding of individual clones’ in Methods above). Table 17 lists each unique sequence, its relative abundance in the selection output (frequency), and a rank number according to target binding strength.

[1] = 2nd stringency from High (1st value of cell)
[2] = 3rd stringency from High (2nd value of cell)
[3] = 4th stringency from High (3rd value of cell)
[4] = 5th stringency from High (4th value of cell)

T1 sequence (P03952 20-638): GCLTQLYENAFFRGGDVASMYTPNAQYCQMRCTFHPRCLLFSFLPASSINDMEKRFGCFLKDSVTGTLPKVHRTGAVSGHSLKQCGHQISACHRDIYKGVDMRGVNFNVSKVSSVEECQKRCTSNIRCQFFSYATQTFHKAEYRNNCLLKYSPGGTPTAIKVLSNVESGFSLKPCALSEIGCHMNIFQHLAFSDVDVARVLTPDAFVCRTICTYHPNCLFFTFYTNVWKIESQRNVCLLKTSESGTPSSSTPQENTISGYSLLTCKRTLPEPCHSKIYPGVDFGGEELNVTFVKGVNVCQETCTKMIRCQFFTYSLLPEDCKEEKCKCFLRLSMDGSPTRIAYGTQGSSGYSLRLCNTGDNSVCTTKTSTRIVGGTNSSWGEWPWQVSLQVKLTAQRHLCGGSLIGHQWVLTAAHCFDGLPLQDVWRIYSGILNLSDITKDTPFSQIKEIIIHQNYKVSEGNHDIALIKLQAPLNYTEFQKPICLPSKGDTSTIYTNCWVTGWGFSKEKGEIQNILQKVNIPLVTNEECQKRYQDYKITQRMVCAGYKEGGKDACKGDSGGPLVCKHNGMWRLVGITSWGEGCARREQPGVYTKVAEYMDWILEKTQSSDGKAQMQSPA

Substance: WSAR: phage clone: WSAR at positions 2-5 within the 06-34-03 sequence, TBMB-cyclised (also: TBMB-cyclised within the 06-34-03 context, the cysteines lie outside this motif)
- Relative abundance of motif in selection output [1]: 3%
- Relative abundance of motif in selection output [2]: 3%
- Relative abundance of motif in selection output [3]: 7%
- Relative abundance of motif in selection output [4]: 6%
- Relative abundance of motif in selection output (stringency High): 3%
- Relative abundance of motif in selection output (stringency LOW): 11%

Substance: SEQ ID NO: 76 (CSWLARCTHQDLC; Synthetic sequence Kallikrein binder identified from selections using a randomised WPAR motif at positions 2, 3, 4 & 5 within the 06-34-03 sequence of PCT/EP2012/069898 (SEQ ID NO 58))
- Frequency (relative abundance in the total selection outputs): 8

Substance: SEQ ID NO: 96 (CSWHARCTHQDLC; Synthetic sequence Kallikrein binder identified from selections using a randomised WPAR motif at positions 2, 3, 4 & 5 within the 06-34-03 sequence of PCT/EP2012/069898 (SEQ ID NO 58))
- Frequency (relative abundance in the total selection outputs): 1

Substance: WPYR: phage clone: WPYR at positions 2-5 within the 06-34-03 sequence, TBMB-cyclised (also: TBMB-cyclised within the 06-34-03 context, the cysteines lie outside this motif)
- Relative abundance of motif in selection output [1]: 3%
- Relative abundance of motif in selection output [2]: 0%
- Relative abundance of motif in selection output [3]: 4%
- Relative abundance of motif in selection output [4]: 0%
- Relative abundance of motif in selection output (stringency High): 3%
- Relative abundance of motif in selection output (stringency LOW): 0%

Substance: SEQ ID NO: 83 (CRFPFKCTHQDLC; Synthetic sequence Kallikrein binder identified from selections using a randomised WPAR motif at positions 2, 3, 4 & 5 within the 06-34-03 sequence of PCT/EP2012/069898 (SEQ ID NO 58))
- Frequency (relative abundance in the total selection outputs): 1

Substance: SEQ ID NO: 105 (CSYPWRCTHQDLC; Synthetic sequence Kallikrein binder identified from selections using a randomised WPAR motif at positions 2, 3, 4 & 5 within the 06-34-03 sequence of PCT/EP2012/069898 (SEQ ID NO 58))
- Frequency (relative abundance in the total selection outputs): 1

Substance: SEQ ID NO: 106 (CSFPFWCTHQDLC; Synthetic sequence Kallikrein binder identified from selections using a randomised WPAR motif at positions 2, 3, 4 & 5 within the 06-34-03 sequence of PCT/EP2012/069898 (SEQ ID NO 58))
- Frequency (relative abundance in the total selection outputs): 1

Substance: SEQ ID NO: 93 (CSYPFRCTHQDLC; Synthetic sequence Kallikrein binder identified from selections using a randomised WPAR motif at positions 2, 3, 4 & 5 within the 06-34-03 sequence of PCT/EP2012/069898 (SEQ ID NO 58))
- Frequency (relative abundance in the total selection outputs): 1

Substance: SEQ ID NO: 113 (CSHRRWCTHQDLC; Synthetic sequence Kallikrein binder identified from selections using a randomised WPAR motif at positions 2, 3, 4 & 5 within the 06-34-03 sequence of PCT/EP2012/069898 (SEQ ID NO 58))
- Frequency (relative abundance in the total selection outputs): 1

Substance: WPSR: phage clone: WPSR at positions 2-5 within the 06-34-03 sequence, TBMB-cyclised (also: TBMB-cyclised within the 06-34-03 context, the cysteines lie outside this motif)
- Relative abundance of motif in selection output [1]: 31%
- Relative abundance of motif in selection output [2]: 41%
- Relative abundance of motif in selection output [3]: 26%
- Relative abundance of motif in selection output [4]: 23%
- Relative abundance of motif in selection output (stringency High): 34%
- Relative abundance of motif in selection output (stringency LOW): 11%

Substance: SEQ ID NO: 80 (CSHPYRCTHQDLC; Synthetic sequence Kallikrein binder identified from selections using a randomised WPAR motif at positions 2, 3, 4 & 5 within the 06-34-03 sequence of PCT/EP2012/069898 (SEQ ID NO 58))
- Frequency (relative abundance in the total selection outputs): 2

Substance: SEQ ID NO: 73 (CSWPARCTHQDLC; Synthetic sequence Kallikrein binder identified from selections using a randomised WPAR motif at positions 2, 3, 4 & 5 within the 06-34-03 sequence of PCT/EP2012/069898 (SEQ ID NO 58))
- Frequency (relative abundance in the total selection outputs): 24

Substance: SEQ ID NO: 107 (CSFSYKCTHQDLC; Synthetic sequence Kallikrein binder identified from selections using a randomised WPAR motif at positions 2, 3, 4 & 5 within the 06-34-03 sequence of PCT/EP2012/069898 (SEQ ID NO 58))
- Frequency (relative abundance in the total selection outputs): 1

Substance: SEQ ID NO: 91 (CSWSARCTHQDLC; Synthetic sequence Kallikrein binder identified from selections using a randomised WPAR motif at positions 2, 3, 4 & 5 within the 06-34-03 sequence of PCT/EP2012/069898 (SEQ ID NO 58))
- Frequency (relative abundance in the total selection outputs): 10

Substance: SEQ ID NO: 101 (CSFLYKCTHQDLC; Synthetic sequence Kallikrein binder identified from selections using a randomised WPAR motif at positions 2, 3, 4 & 5 within the 06-34-03 sequence of PCT/EP2012/069898 (SEQ ID NO 58))
- Frequency (relative abundance in the total selection outputs): 2

Substance: SEQ ID NO: 111 (CRWPYHCTHQDLC; Synthetic sequence Kallikrein binder identified from selections using a randomised WPAR motif at positions 2, 3, 4 & 5 within the 06-34-03 sequence of PCT/EP2012/069898 (SEQ ID NO 58))
- Frequency (relative abundance in the total selection outputs): 1

Substance: SEQ ID NO: 112 (CSLFDHCTHQDLC; Synthetic sequence Kallikrein binder identified from selections using a randomised WPAR motif at positions 2, 3, 4 & 5 within the 06-34-03 sequence of PCT/EP2012/069898 (SEQ ID NO 58))
- Frequency (relative abundance in the total selection outputs): 1

Substance: SEQ ID NO: 104 (CSIPFKCTHQDLC; Synthetic sequence Kallikrein binder identified from selections using a randomised WPAR motif at positions 2, 3, 4 & 5 within the 06-34-03 sequence of PCT/EP2012/069898 (SEQ ID NO 58))
- Frequency (relative abundance in the total selection outputs): 1
